Substitutions are numbered along the chain they refer to.
B1: anti-ASCT2 monoclonal antibody KM4008 (antibody, V domains shown)
VH: QIQLVQSGPELKKPGETVKISCKASGYTFTTFGMSWVKQVPGKGLKWMGWIHTYAGVPIYGDDFKGRFAFSLETSASTAYLQINNVKNEDTATYFCARRSDNYRYFFDYWGQGTTLTVSS
VL: DIQMTQTTSSLSASLGDRVTISCRASQDIRNYLNWYQRKPHGTVKLLIYYTSRLHSGVPSRFSGSGSGTDYSLTISNLEQEDIATYFCQQGHTLPPTFGGGTKLEIKR
notes: mouse IgG3, kappa (amplified with a mouse Ig kappa primer)
B2: anti-ASCT2 human chimeric antibody cKM4008 (antibody, V domains shown)
VH: B1 VH
VL: B1 VL
notes: VH and VL of KM4008 joined to human CH and CL of vector pKANTEX93; SDS-PAGE pattern of the IgG class
B3: anti-ASCT2 monoclonal antibody KM4012 (antibody, mouse IgG2b, V domains shown)
VH: B1 VH with F32Y, V40T, A55S, F64S, A76G, T78I, N102G
VL: B1 VL with T7I, R38Q, H41D, H92N
notes: mouse IgG2b, kappa
B4: anti-ASCT2 human chimeric antibody cKM4012 (antibody, V domains shown)
VH: B1 VH with F32Y, V40T, A55S, F64S, A76G, T78I, N102G
VL: B1 VL with T7I, R38Q, H41D, H92N
notes: VH and VL of KM4012 joined to human CH and CL of vector pKANTEX93; IgG class
B5: anti-ASCT2 humanized antibody KM4008HV2LV3 (antibody, V domains shown)
VH: QVQLVQSGSELKKPGAPVKVSCKASGYTFSTFGMSWVRQAPGQGLKWMGWIHTYAGVPIYGDDFKGRFVFSLDTSVSTAYLQISSLKAEDTAVYFCARRSDNYRYFFDYWGQGTTVTVSS
VL: DIQMTQSPSSLSASLGDRVTITCRASQDIRNYLNWYQQKPGKAPKLLIYYTSRLHSGVPSRFSGSGSGTDYTLTISSLQPEDFATYFCQQGHTLPPTFGQGTKLEIK
notes: Expressed from vector pKANTEX93 with human CH and CL; SDS-PAGE pattern of an IgG class antibody
B6: anti-ASCT2 humanized antibody KM4008HV10LV3 (antibody, V domains shown)
VH: B5 VH with V2I, S9P, V20I, S30T, R38K, L86V, V93T, V116L
VL: B5 VL
notes: as for B5
B7: anti-ASCT2 human chimeric antibody cKM4018 (antibody, V domains shown)
VH: EVQLVESGGGLVQSGRSIRLSCAASGFSFSNYYMAWVRQAPSKGLEWVASITKGGGNTYYRDSVKGRFTFSRDNAKSTLYLQMDSLRSEDTATYYCARQVTIAAVSTSYFDSWGQGVMVTVSS
VL: DIVLTQSPALAVSLGQRATISCKTNQKVDYYGNSYVYWYQQKPGQQPKLLIYLASNLASGIPARFSGRGSGTDFTLTIDPVEADDTATYYCQQSRNLPYTFGAGTKLELKR
notes: VH and VL of KM4018 joined to human CH and CL of vector pKANTEX93; IgG class

How the values were obtained:
[1] = target: T1, mouse EL4 type ASCT2-myc/His (mouse/human chimeric ASCT2), expressed on CHO cells (human/mouse chimera, UniProt Q15758 1-541); experiment: flow cytometry on mEL4/CHO cells; '+' = presence of reactivity
T1 construct: also called mEL4/CHO; mEL4
T1 sequence: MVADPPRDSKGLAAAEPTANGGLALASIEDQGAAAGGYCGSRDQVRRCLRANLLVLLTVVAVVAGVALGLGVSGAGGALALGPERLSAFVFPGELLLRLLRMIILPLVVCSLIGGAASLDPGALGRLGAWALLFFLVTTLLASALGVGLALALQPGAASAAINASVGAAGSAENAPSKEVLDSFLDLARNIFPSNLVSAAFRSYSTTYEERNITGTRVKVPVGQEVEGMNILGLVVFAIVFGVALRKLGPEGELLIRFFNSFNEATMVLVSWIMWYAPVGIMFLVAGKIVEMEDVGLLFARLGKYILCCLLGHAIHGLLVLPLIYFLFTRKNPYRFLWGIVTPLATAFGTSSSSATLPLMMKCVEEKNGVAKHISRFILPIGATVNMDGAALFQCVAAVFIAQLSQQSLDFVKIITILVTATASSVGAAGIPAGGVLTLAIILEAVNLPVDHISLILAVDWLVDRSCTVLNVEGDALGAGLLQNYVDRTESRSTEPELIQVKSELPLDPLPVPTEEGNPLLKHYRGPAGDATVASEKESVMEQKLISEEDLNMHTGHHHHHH
Description: Using the mouse ASCT2/CHO and mouse/human chimeric ASCT2/CHO cells constructed in Examples 10 and 11 and FITC-labeled anti-mouse immunoglobulin G (H+L) (manufactured by Dako) or ALEXA488-labeled anti-rat immunoglobulin G […] (manufactured by Invitrogen) as the secondary antibody, the reactivity of anti-ASCT2 monoclonal antibodies KM4008, KM4012 and KM4018 was measured in the same manner as in Example 9(1).
In Table 2, the symbols “+”, “−”, and “±” represent the presence of reactivity, the absence of reactivity, and the decrease in reactivity, respectively.

[2] = target: T2, human ASCT2 (system ASC amino acid transporter 2), endogenous on human tumour cell lines (human, UniProt Q15758 1-541); experiment: flow cytometry on KMS-11 cells
T2 construct: Endogenous ASCT2 of cell lines KMS-11 (stated to express ASCT2 mRNA), WiDr and OPM-2; also called SLC1A5; ASCT2 on KMS-11, OPM-2, WiDr cells
T2 sequence: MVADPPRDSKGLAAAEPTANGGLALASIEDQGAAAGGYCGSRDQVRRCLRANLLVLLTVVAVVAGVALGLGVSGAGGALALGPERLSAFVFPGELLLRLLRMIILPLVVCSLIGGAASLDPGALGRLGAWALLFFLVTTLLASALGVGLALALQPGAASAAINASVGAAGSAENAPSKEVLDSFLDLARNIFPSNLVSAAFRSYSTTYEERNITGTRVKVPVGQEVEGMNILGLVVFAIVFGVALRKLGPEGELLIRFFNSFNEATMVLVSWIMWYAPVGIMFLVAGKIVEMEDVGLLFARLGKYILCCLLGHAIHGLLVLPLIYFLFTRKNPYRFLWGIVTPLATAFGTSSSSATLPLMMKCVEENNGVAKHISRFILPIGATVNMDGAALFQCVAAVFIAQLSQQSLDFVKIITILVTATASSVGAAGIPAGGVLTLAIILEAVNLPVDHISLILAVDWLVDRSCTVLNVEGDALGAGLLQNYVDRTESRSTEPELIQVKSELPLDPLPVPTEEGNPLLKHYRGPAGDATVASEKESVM

[3] = target: T3, human ASCT2-myc/His (fusion protein in which myc/His was added to the C-terminal of human ASCT2), expressed … (human, UniProt Q15758 1-541); experiment: flow cytometry on human ASCT2/CHO cells; '+' = presence of reactivity
T3 construct: Amino acid transporter with C-terminal myc/His tag, stably expressed in CHO/DG44 cells; cell lysates of these cells were used for Western blotting and immunoprecipitation; also called ASCT2/CHO; human ASCT2-myc/His gene-introduced CHO cell
T3 sequence: T1 sequence with K367N

[4] = target: T3, human ASCT2-myc/His (fusion protein in …); experiment: flow cytometry on human ASCT2-myc/His gene-introduced CHO cells
[5] = target: T2, human ASCT2 (system ASC amino acid …); experiment: flow cytometry on OPM-2 cells
Description: Each of the human ASCT2-myc/His gene-introduced CHO cell obtained in Example 2, and the multiple myeloma cell line OPM-2 (DSMZ Accession No. ACC50) was cultured in a 5% CO₂ incubator for 3 to 4 days at 37° C. The human ASCT2-myc/His gene-introduced CHO cells were detached with a 0.02% EDTA solution (manufactured by Nacalai Tesque), and in order to avoid the non-specific adsorption of antibodies, the cells were blocked for 30 minutes at ice temperature using 1% BSA-PBS.
The cells were seeded into a 96-well U-bottom plate so as to give a density of 1×10⁵ to 5×10⁵ cells/100 μL/well. The plates were centrifugation at 1,500 rpm for 5 minutes (05PR-22, manufactured by Hitachi Koki), and then the supernatant was removed.
As the primary antibody, the purified antibody which was a test substance was diluted to give a final concentration of 0.01 μg/mL to 10 μg/mL in 1% BSA-PBS, and dispensed to the plate at 100 μL/well, followed by reaction at ice temperature for 60 minutes. After washing the cells with 1% BSA-PBS, FITC-labeled anti-human immunoglobulin G (H+L) (manufactured by Jackson Laboratories) diluted with 1% BSA-PBS was added as the secondary antibody, followed by reaction at ice temperature for 30 minutes protected from light. The cells were washed with 1% BSA-PBS and then suspended in PBS. The fluorescence intensity of the cells was measured by a flow cytometer (Cytomics FC500 MPL, manufactured by Beckman Coulter).

Binder | binding result [1] | binding result [2] | binding result [3] | binding result [4] | binding result [5]
B1 | binds | binds | binds | – | –
B2 | – | – | – | binds | binds
B3 | binds | binds | binds | – | –
B4 | – | – | – | binds | binds
B5 | – | binds | – | binds | –
B6 | – | binds | – | binds | –
B7 | – | – | – | binds | binds
